Assay [1] has as its system myelofibrosis patients with splenomegaly. As to conditions: cited from earlier work.
A further assay concerns the target T1, GDF8 (Homo sapiens, UniProt O14793).
T1 sequence (O14793 267-375): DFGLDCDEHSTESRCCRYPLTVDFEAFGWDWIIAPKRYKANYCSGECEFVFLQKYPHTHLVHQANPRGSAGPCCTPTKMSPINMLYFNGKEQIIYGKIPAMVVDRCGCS
As to the kind of experiment: Biacore assay, receptor captured with anti-hFc antibody, GDF8 injected. The settings on record: for Koff (1/s), GDF8: receptor captured via anti-hFc antibody; for myostatin binding, in words: cell-free Biacore assay. The format is binding. On the procedure:
(§1) Binding of certain ActRIIB-Fc proteins and GDF traps to ligands was tested in a Biacore™ assay.
(§2) The ActRIIB-Fc variants or wild-type protein were captured onto the system using an anti-hFc antibody. Ligands were injected and flowed over the captured receptor proteins.
In general terms: SPR reads the build-up and loss of mass on a sensor chip optically.

The target in assay [2] is T2, Activin A (Homo sapiens, UniProt P08476).
T2 sequence (P08476 311-426): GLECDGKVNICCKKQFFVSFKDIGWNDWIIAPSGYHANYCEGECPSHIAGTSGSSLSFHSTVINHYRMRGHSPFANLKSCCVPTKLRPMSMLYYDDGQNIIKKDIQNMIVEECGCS
Description: Biacore assay, receptor captured with anti-hFc antibody, activin A injected. The assay is classed as binding. The settings on record: for Koff (1/s), Activin A / Kon (1/Ms), Activin A / KD (M), Activin A: receptor captured via anti-hFc antibody; for binding to activin A, in words: cell-free Biacore assay. On the procedure:
as §1, §2

In assay [3] the target is T3, GDF11 (Homo sapiens, UniProt O95390).
T3 sequence (O95390 299-407): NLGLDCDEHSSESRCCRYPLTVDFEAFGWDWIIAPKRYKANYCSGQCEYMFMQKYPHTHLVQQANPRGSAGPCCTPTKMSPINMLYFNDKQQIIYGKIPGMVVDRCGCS
Description: Biacore assay, receptor captured with anti-hFc antibody, GDF11 injected. The assay is classed as binding. As to conditions: for GDF11 binding, in words: cell-free Biacore assay; for Koff (1/s), GDF11: receptor captured via anti-hFc antibody. On the procedure: as §1, §2

For assay [4], the target named is T3, GDF11. Description: A-204 reporter gene assay, inhibition of GDF-11 signaling. The format is cell-based. The arrangement: host or cells: added to A-204 cells (human rhabdomyosarcoma). An excerpt: (§3) An A-204 reporter gene assay was used to evaluate the effects of ActRIIB-Fc proteins and GDF traps on signaling by GDF-11 and activin A. Cell line: human rhabdomyosarcoma (derived from muscle). Reporter vector: pGL3(CAGA)12 (described in Dennler et al, 1998, EMBO 17: 3091-3100). The CAGA12 motif is present in TGF-beta responsive genes (e.g., PAI-1 gene), so this vector is of general use for factors signaling through SMAD2 and 3.
(§4) Day 1: Split A-204 cells into 48-well plate.
(§5) Day 2: A-204 cells transfected with 10 ug pGL3(CAGA)12 or pGL3(CAGA)12(10 ug)+pRLCMV (1 μg) and Fugene.
(§6) Day 3: Add factors (diluted into medium+0.1% BSA). Inhibitors need to be preincubated with factors for 1 hr before adding to cells. Six hrs later, cells were rinsed with PBS and lysed.
(§7) This is followed by a luciferase assay.
(§8) Activity of ActRIIB-Fc proteins and GDF traps was tested in a cell-based assay as described above. Some variants were tested in different C-terminal truncation constructs. As discussed above, truncations of five or fifteen amino acids caused reduction in activity.
A general note: A reporter such as luciferase makes a cellular process visible.

Assay [5] addresses T2, Activin A. As to the kind of experiment: A-204 reporter gene assay, inhibition of activin A signaling. The format is cell-based. The arrangement: host or cells: added to A-204 cells (human rhabdomyosarcoma).
Excerpt: as §3, §4, §5, §6, §7, §8

Take `NC(=O)NO` [HC, Hydroxycarbamide]: the “patients with reductions in spleen size from 25%-50%” value in assay [1] (Martinez-Trillos et al. (2010)) was “up to 35%”.

On to `Nc1nc(Cl)nc2c1ncn2[C@H]1C[C@H](O)[C@@H](CO)O1` [cladribine], for which the spleen response rate result in assay [1] was “up to 50%”.

With `Nc1cccc2c1CN(C1CCC(=O)NC1=O)C2=O` (stereo not shown) [lenalidomide], the spleen response rate in assay [1] is 33%.

For `O=C1CCC(N2C(=O)c3ccccc3C2=O)C(=O)N1` (stereo not shown) [thalidomide], the spleen response rate in assay [1] is less than 20%.

B1: ActRIIB(R64K 20-129)-hFc: ActRIIB-hFc variant, residues 20-129, R64K substitution (protein)
chain: GRGEAETRECIYYNANWELERTNQSGLERCEGEQDKRLHCYASWKNSSGTIELVKKGCWLDDFNCYDRQECVATEENPQVYFCCCEGNFCNERFTHLPEAGGPEVTYEPPGGGTHTCPPCPAPELLGGPSVFLFPPKPKDTLMISRTPEVTCVVVDVSHEDPEVKFNWYVDGVEVHNAKTKPREEQYNSTYRVVSVLTVLHQDWLNGKEYKCKVSNKALPVPIEKTISKAKGQPREPQVYTLPPSREEMTKNQVSLTCLVKGFYPSDIAVEWESNGQPENNYKTTPPVLDSDGSFFLYSKLTVDKSRWQQGNVFSCSVMHEALHNHYTQKSLSLSPGK
B1: the “Koff (1/s), GDF8” value in the assay with GDF8 is 0.000209 s⁻¹. In addition, in the assay with Activin A [2], the “Koff (1/s), Activin A” value amounted to 0.000628 s⁻¹ and the “Kon (1/Ms), Activin A” value worked out at 7.46e+06 M⁻¹ s⁻¹.

B2: ActRIIB(L79D 20-134)-hFc: GDF trap: ActRIIB amino acids 20-134 with L79D substitution fused to human Fc, SEQ ID NO: 29 (protein)
chain: GRGEAETRECIYYNANWELERTNQSGLERCEGEQDKRLHCYASWRNSSGTIELVKKGCWDDDFNCYDRQECVATEENPQVYFCCCEGNFCNERFTHLPEAGGPEVTYEPPPTAPTGGGTHTCPPCPAPELLGGPSVFLFPPKPKDTLMISRTPEVTCVVVDVSHEDPEVKFNWYVDGVEVHNAKTKPREEQYNSTYRVVSVLTVLHQDWLNGKEYKCKVSNKALPVPIEKTISKAKGQPREPQVYTLPPSREEMTKNQVSLTCLVKGFYPSDIAVEWESNGQPENNYKTTPPVLDSDGSFFLYSKLTVDKSRWQQGNVFSCSVMHEALHNHYTQKSLSLSPGK
For the molecule B2, in the assay with GDF11 [3], the “GDF11 binding, in words” value is “retains” and the “Koff (1/s), GDF11” value is 0.000439 s⁻¹. Also, in the assay with GDF8, the “myostatin binding, in words” value is “retains” and the “Koff (1/s), GDF8” value was found to be 0.00083 s⁻¹. In addition, in the assay with Activin A [2], the “binding to activin A, in words” value is “markedly decreased (non-quantifiable)” and the “KD (M), Activin A” value is given as “Low binding”. Moreover, the “inhibition of GDF-11 activity, in words” value in the assay with GDF11 [4] was “almost wild-type”. In the assay with Activin A [5], the “inhibition of activin A activity, in words” value is on record as “substantial loss”.

B3: ActRIIB(K74A 20-134)-hFc: ActRIIB(20-134)-hFc variant with K74A substitution (protein)
chain: GRGEAETRECIYYNANWELERTNQSGLERCEGEQDKRLHCYASWRNSSGTIELVAKGCWLDDFNCYDRQECVATEENPQVYFCCCEGNFCNERFTHLPEAGGPEVTYEPPPTAPTGGGTHTCPPCPAPELLGGPSVFLFPPKPKDTLMISRTPEVTCVVVDVSHEDPEVKFNWYVDGVEVHNAKTKPREEQYNSTYRVVSVLTVLHQDWLNGKEYKCKVSNKALPVPIEKTISKAKGQPREPQVYTLPPSREEMTKNQVSLTCLVKGFYPSDIAVEWESNGQPENNYKTTPPVLDSDGSFFLYSKLTVDKSRWQQGNVFSCSVMHEALHNHYTQKSLSLSPGK
With B3, in the assay with GDF8, the “Koff (1/s), GDF8” value worked out at 2.03e-05 s⁻¹.

B4: ActRIIB(L79E 20-134)-hFc: GDF trap form with a glutamate rather than an aspartate at position 79, human Fc fusion (protein)
chain: GRGEAETRECIYYNANWELERTNQSGLERCEGEQDKRLHCYASWRNSSGTIELVKKGCWEDDFNCYDRQECVATEENPQVYFCCCEGNFCNERFTHLPEAGGPEVTYEPPPTAPTGGGTHTCPPCPAPELLGGPSVFLFPPKPKDTLMISRTPEVTCVVVDVSHEDPEVKFNWYVDGVEVHNAKTKPREEQYNSTYRVVSVLTVLHQDWLNGKEYKCKVSNKALPVPIEKTISKAKGQPREPQVYTLPPSREEMTKNQVSLTCLVKGFYPSDIAVEWESNGQPENNYKTTPPVLDSDGSFFLYSKLTVDKSRWQQGNVFSCSVMHEALHNHYTQKSLSLSPGK
With B4, in the assay with GDF11 [3], the “GDF11 binding, in words” value is on record as “retains” and the “Koff (1/s), GDF11” value was determined as 0.000274 s⁻¹. In the assay with GDF8, the “myostatin binding, in words” value is listed as “retains” and the “Koff (1/s), GDF8” value is 0.0009 s⁻¹. In addition, in the assay with Activin A [2], the “binding to activin A, in words” value was “markedly decreased (non-quantifiable)” and the “KD (M), Activin A” value is “Low binding”. In addition, the “inhibition of GDF-11 activity, in words” value in the assay with GDF11 [4] was “almost wild-type”. In addition, in the assay with Activin A [5], the “inhibition of activin A activity, in words” value was “substantial loss”.

B5: ActRIIB(R64K 20-134)-hFc: ActRIIB(20-134)-hFc variant with R64K substitution (protein)
chain: GRGEAETRECIYYNANWELERTNQSGLERCEGEQDKRLHCYASWKNSSGTIELVKKGCWLDDFNCYDRQECVATEENPQVYFCCCEGNFCNERFTHLPEAGGPEVTYEPPPTAPTGGGTHTCPPCPAPELLGGPSVFLFPPKPKDTLMISRTPEVTCVVVDVSHEDPEVKFNWYVDGVEVHNAKTKPREEQYNSTYRVVSVLTVLHQDWLNGKEYKCKVSNKALPVPIEKTISKAKGQPREPQVYTLPPSREEMTKNQVSLTCLVKGFYPSDIAVEWESNGQPENNYKTTPPVLDSDGSFFLYSKLTVDKSRWQQGNVFSCSVMHEALHNHYTQKSLSLSPGK
Consider B5, for which the “Koff (1/s), GDF11” value with GDF11 [3] stood at 2.41e-05 s⁻¹. Also, the “Koff (1/s), GDF8” value in the assay with GDF8 came out at 4.71e-05 s⁻¹. In the assay with Activin A [2], the “Koff (1/s), Activin A” value was 0.000325 s⁻¹ and the “Kon (1/Ms), Activin A” value was determined as 6.82e+06 M⁻¹ s⁻¹.

B6: ActRIIB(P129S, P130R 20-134)-hFc: ActRIIB(20-134)-hFc variant with P129S and P130R substitutions (protein)
chain: GRGEAETRECIYYNANWELERTNQSGLERCEGEQDKRLHCYASWRNSSGTIELVKKGCWLDDFNCYDRQECVATEENPQVYFCCCEGNFCNERFTHLPEAGGPEVTYEPSRTAPTGGGTHTCPPCPAPELLGGPSVFLFPPKPKDTLMISRTPEVTCVVVDVSHEDPEVKFNWYVDGVEVHNAKTKPREEQYNSTYRVVSVLTVLHQDWLNGKEYKCKVSNKALPVPIEKTISKAKGQPREPQVYTLPPSREEMTKNQVSLTCLVKGFYPSDIAVEWESNGQPENNYKTTPPVLDSDGSFFLYSKLTVDKSRWQQGNVFSCSVMHEALHNHYTQKSLSLSPGK
Regarding B6, the “Koff (1/s), GDF8” value in the assay with GDF8 turned out to be 0.00018 s⁻¹. In addition, in the assay with Activin A [2], the “Koff (1/s), Activin A” value is 0.000417 s⁻¹ and the “Kon (1/Ms), Activin A” value was determined as 5.02e+06 M⁻¹ s⁻¹.

B7: ActRIIB(A24N 20-134)-hFc: ActRIIB(20-134)-hFc variant with A24N substitution (protein)
chain: GRGENETRECIYYNANWELERTNQSGLERCEGEQDKRLHCYASWRNSSGTIELVKKGCWLDDFNCYDRQECVATEENPQVYFCCCEGNFCNERFTHLPEAGGPEVTYEPPPTAPTGGGTHTCPPCPAPELLGGPSVFLFPPKPKDTLMISRTPEVTCVVVDVSHEDPEVKFNWYVDGVEVHNAKTKPREEQYNSTYRVVSVLTVLHQDWLNGKEYKCKVSNKALPVPIEKTISKAKGQPREPQVYTLPPSREEMTKNQVSLTCLVKGFYPSDIAVEWESNGQPENNYKTTPPVLDSDGSFFLYSKLTVDKSRWQQGNVFSCSVMHEALHNHYTQKSLSLSPGK
B7: in the assay with GDF11 [3], the “Koff (1/s), GDF11” value was determined as 6.35e-05 s⁻¹. Further, in the assay with Activin A [2], the “Koff (1/s), Activin A” value came to 0.000346 s⁻¹ and the “Kon (1/Ms), Activin A” value was found to be 3.34e+06 M⁻¹ s⁻¹.

The values are drawn from patent publication US12194076B2, “Methods and compositions for treating myelofibrosis” (Acceleron Pharma Inc., priority 2016, dated 2025).
